The nanobody polyreactivity screen of Harvey et al. (2022)

Test: yeast display, Sf9 membrane polyspecificity reagent, FACS + sequencing; frameworks hold sequencing errors
Outline: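 A nanobody's polyreactivity label depends on the gate it was sorted from. Yeast display cells were stained with 10% biotinylated, detergent-solubilized Sf9 membrane reagent for 1 hour at 4 °C, enriched on streptavidin microbeads and sorted by FACS. The low and high (top ~1%) gates were set on anti-HA fluorescence for expression and streptavidin fluorescence for reagent binding.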

| Sequence | polyreactivity (PSR sort gate) |
| --- | --- |
| QVQLVESGGGLVQAGGSLRLSCAASGGIFSRYGLGWYRQAPGKERELVAAITGRGGSTYYADSVKGRFTISRDNAKNTVYLQMNSLKPEDTAVDYCAAKVRSLNWFDYWGQGTQVTVSS | high polyreactivity |
| QVQLVESGGGLVQAGGSLRLSCAASGGIFSSYAMGGYRQAPGKERELVASISRRGTSTYYADSVKGRFTISRDNAKNTVYLQMNSLKPEDTAVYYCAAGTKYTSAVHFYYWGQGTQVTVSS | high polyreactivity |
| QVQLVESGGGLVQAGGSLRLSCAASGGIFSSYAMGWYRQAPGKERELVASISRRGTSTYYADSVKGRFTISRDNAKNTVYLQMNSLKPEDTAVYYCAAGTKYTSAVHFYYWGQGTQVTVSS | high polyreactivity |
| QVQLVESGGGLVQAGGSLRLSCAASGGIFSTYTMRWYRQAPGKERELVAAITTGNSTYYADSVKGRFTISRDNAKNTVYLQMNSLKPEDTAVYYCAAFAASRDYYRRLFHDGYDYWGQGTQVTVSS | low polyreactivity |
| QVQLVESGGGLVQAGGSLRLSCAASGGIFSYYAMGWYRQAPGKEREFVAAIDWGGGSTYYADSVKGRFTISRDNAKNTVYFQMNSLKPEDTAVYYCAAEIYPIGWDDYDYWGQGTQVTVSS | low polyreactivity |
| QVQLVESGGGLVQAGGSLRLSCAASGGIFTGYAMGWYRQAPGKERELVASITISGGRTYYADSVKGRFTISRDNAKNTVYLQINSLKPEDTAVYYCAATIPWYKYRYYYWGQGTQVTVSS | high polyreactivity |
| QVQLVESGGGLVQAGGSLRLSCAASGGIFTYYTMGWYRQAPGKERELVAAISRRVGRTYYADSVKGRFTISRDKANNTVYLQMNSLKPEDTAVYYCNADSRRRLFDYWGQGTQVTVSS | high polyreactivity |
| QVQLVESGGGLVQAGGSLRLSCAASGGIFVGNAMGWYRQAPGKERELVAAISQRGGRTYYADSVKGRFTISRDNAKNTVYLQMNSLKPEDTAVYYCAAGYWLSTDSGYPFQYYLYDYWGQGTQVTVSS | high polyreactivity |
| QVQLVESGGGLVQAGGSLRLSCAASGGIFVRYAMGWYRQAPGKERELVAAISSSGDRTYYADSVKGRFTISRDNAKNTVYLQMHSLKPEDTAVYYCNADRGHDKVDYWGQATQVTVSS | low polyreactivity |
| QVQLVESGGGLVQAGGSLRLSCAASGGIFVSYAMGWYRQAPGKERELVARINAVDGTNYADSVKGRFTISRDNAKYTVYLQMKSVKPEDTAVYYCAVRSPVLASDYGYYFLRDYWGQGTQVTVSS | low polyreactivity |
| QVQLVESGGGLVQAGGSLRLSCAASGGIFVSYAMGWYRQAPGKEWELVAAITSGGGTSYADSVKGRFTISRDNAKNTVYLQMNSLKPEDTAVYYCNADGYLAERFVIRLDEYRHYDYWGQGTQVTVSS | low polyreactivity |
| QVQLVESGGGLVQAGGSLRLSCAASGGIFWSYAMGWYRQAPGKERELVAAISSGTYYADSVKGRFTISRDNAKNTVYLQMNSLIPEDTAVYYWNVQTYNVAWFYRYDMNYWGQGPQVTVSS | low polyreactivity |
| QVQLVESGGGLVQAGGSLRLSCAASGGIFWYNAMGWYRQAPGKERELVADISSSGITYYADSVKGRFTISRDNAKNTVYLQMKSLKPEDTAVYYCAADSTTRPGLRVYDDYDYWGQGTQVTVSS | low polyreactivity |
| QVQLVESGGGLVQAGGSLRLSCAASGGIFWYYAMGWYRQAPGKERELVAAINSGGSTYYADSVKGRFTISRDNAKNTVYLQMNSLNPEDTAVYYCNTRYPFSRYDYWGQGTQVTVSS | low polyreactivity |
| QVQLVESGGGLVQAGGSLRLSCAASGGIFYAYAMGWYRQAPGKERELVAAISISDGDTYYADSVKGRFTISRDNAKNTVYLQMNSLKPEDTAVYYCAAEQEYDLREYDYWGQGTQVTVSS | high polyreactivity |
| QVQLVESGGGLVQAGGSLRLSCAASGGIFYLYAMGWYRQAPGKEREFVAAISSSGGSTNYADSVKGRFTISRDNAKNTVYLQMNSLKPEDTAVYYCAARWLPFLDLGKTYEYWGQGTQVTVSS | high polyreactivity |
| QVQLVESGGGLVQAGGSLRLSCAASGGIFYSNAMGWYRQAPGKERELVAVISGNGGRTYYADSVKGRFTISRDNAKNTVYLQMNSLKPEDTAVYYCATPSYTTAYVEGDYWGQGTQVTVSS | low polyreactivity |
